Target: T1, Recombinant human PDZD8 (1,28-) - FLAG (human, UniProt Q8NEN9 1-1154, (1, 28-))
T1 sequence (looked up): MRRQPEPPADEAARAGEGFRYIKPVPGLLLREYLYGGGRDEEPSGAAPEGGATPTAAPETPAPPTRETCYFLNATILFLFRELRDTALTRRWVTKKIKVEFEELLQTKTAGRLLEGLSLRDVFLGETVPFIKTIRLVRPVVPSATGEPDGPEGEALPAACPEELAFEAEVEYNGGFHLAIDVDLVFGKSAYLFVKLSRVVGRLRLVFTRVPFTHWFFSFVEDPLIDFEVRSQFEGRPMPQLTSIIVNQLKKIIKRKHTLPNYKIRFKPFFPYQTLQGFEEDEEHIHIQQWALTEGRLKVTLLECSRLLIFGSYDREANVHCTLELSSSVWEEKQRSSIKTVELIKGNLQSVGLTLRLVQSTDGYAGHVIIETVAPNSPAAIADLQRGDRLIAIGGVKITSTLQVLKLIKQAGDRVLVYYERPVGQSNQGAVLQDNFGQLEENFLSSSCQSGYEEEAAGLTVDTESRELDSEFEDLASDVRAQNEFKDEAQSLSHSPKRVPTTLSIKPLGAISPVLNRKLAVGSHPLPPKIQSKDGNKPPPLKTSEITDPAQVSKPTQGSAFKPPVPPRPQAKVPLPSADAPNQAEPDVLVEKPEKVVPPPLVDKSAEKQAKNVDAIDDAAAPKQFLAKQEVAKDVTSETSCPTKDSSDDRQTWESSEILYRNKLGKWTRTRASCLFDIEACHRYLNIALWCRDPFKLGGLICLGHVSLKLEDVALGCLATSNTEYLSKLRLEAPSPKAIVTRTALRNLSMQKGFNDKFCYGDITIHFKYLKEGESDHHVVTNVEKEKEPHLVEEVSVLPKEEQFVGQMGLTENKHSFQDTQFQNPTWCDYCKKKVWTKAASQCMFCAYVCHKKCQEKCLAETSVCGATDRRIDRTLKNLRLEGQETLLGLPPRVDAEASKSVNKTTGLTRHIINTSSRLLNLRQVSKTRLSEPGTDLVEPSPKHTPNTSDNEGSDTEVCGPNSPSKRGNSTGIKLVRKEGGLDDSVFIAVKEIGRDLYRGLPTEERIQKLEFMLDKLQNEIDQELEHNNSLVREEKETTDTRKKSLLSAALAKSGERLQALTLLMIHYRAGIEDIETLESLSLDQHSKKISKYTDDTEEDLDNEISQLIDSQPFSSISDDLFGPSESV
Assay: SPR

Kd: 142 µM
B1: Recombinant human FKBP8 (1-380) - Histag (domain or fragment, UniProt Q14318 1-380, looked up)
chain: MASCAEPSEPSAPLPAGVPPLEDFEVLDGVEDAEGEEEEEEEEEEEDDLSELPPLEDMGQPPAEEAEQPGALAREFLAAMEPEPAPAPAPEEWLDILGNGLLRKKTLVPGPPGSSRPVKGQVVTVHLQTSLENGTRVQEEPELVFTLGDCDVIQALDLSVPLMDVGETAMVTADSKYCYGPQGRSPYIPPHAALCLEVTLKTAVDGPDLEMLTGQERVALANRKRECGNAHYQRADFVLAANSYDLAIKAITSSAKVDMTFEEEAQLLQLKVKCLNNLAASQLKLDHYRAALRSCSLVLEHQPDNIKALFRKGKVLAQQGEYSEAIPILRAALKLEPSNKTIHAELSKLVKKHAAQRSTETALYRKMLGNPSRLPAKCPG

From paper doi:10.1101/2023.08.22.554218 (bioRxiv, 2023)
